Here are results for six molecules from doi:10.1101/2020.12.31.424868 (bioRxiv, 2020).

One assay has as its target IN/05 HA (Influenza A virus A/Indonesia/5/2005 …, UniProt C5MRF2, strain). The assay can be described thus: ELISA. In general terms: In an ELISA, binding on a coated surface is turned into a signal by an enzyme label.
In assay [1] the target is head domain of VN/04 HA (A/Vietnam/1203/2004 H5N1), monomeric (Influenza A virus A/Vietnam/1203/2004 …, strain). The assay can be described thus: HDX-MS.
Assay [2] concerns the target HA from A/New York/107/2003 (Influenza A virus A/New York/107/2003 …, UniProt B2LVD7, strain). The assay can be described thus: ELISA.
Assay [3] addresses monomeric HA head domain from H1 A/California/07/2009 (influenza A virus A/California/07/2009 …, UniProt C3W5X2). The assay can be described thus: BLI. In general terms: Biolayer interferometry detects binding as a change in optical thickness at a sensor tip.
The target in assay [4] is trimeric recombinant HA from H1 A/California/04/2009 (Influenza A virus A/California/04/2009 …, UniProt C3W5S1). The assay can be described thus: BLI.

Positions count from the first letter of the chain named.

B1: mAb H5.28, hybridoma-generated IgG (antibody, V domains shown)
VH: EVQLVESGGGLVQPGGSLRLSCAASGFTFSTYWMTWVRQAPGKGLEWVANINQDGGEKYFVDSVKGRFTISRDNAKNSLFLQMNTLRAEDTAVYYCARGFLERLLLGRQGAYYYGMDVWGQGTTVTVSS
VL: DIQMTQSPSSLSASVGDRVSMTCRASQIISSSLNWYQQKPGKAPKLLIYAASNLQSGVPSRFSGSGSGTDFTLTISSLQPEDFATYYCQQSYSTPPELTFGGGTKVEIK
On to B1, for which the binding result with IN/05 HA is recorded as “binds”.

B2: H5.28 Fab (recombinant) (Fab, V domains shown)
VH: B1 VH
VL: B1 VL
Regarding B2, in assay [1], the binding result is listed as “binds”.

B3: mAb H5.31, hybridoma-generated IgG (antibody, V domains shown)
VH: EVQLVQSGGGLVQPGGSLRLSCEASRFTSSSYWITWVRQAPGKGLEWVANIKQDGSEKYFVDSVKGRFTISRDNASNSLYLQMSSLRAEDTAVYYCARGFLERLLLGRQGAYYYGMDVWGQGTTVTVSS
VL: B1 VL with Q3V, S9F, S20T, I28S, S93T, T94M
For B3, in the assay with IN/05 HA, the binding result was “binds”.

B4: FluA-151 (antibody, V domains shown)
VH: QELLVESGGGVVQPGRSLRLSCVGSGFTFRTYGMHWVRQAPGRRPEWVALISNDGSREYYADSVKGRFTISRDNSRNTLYLQMNSLTVADTAVYYCAKFIPDPNYGEFYFHHWGQGTLVTVSS
VL: DIQMTQSPSSLSASVEDRVTITCRASQSINKYLNWYQQKPGKAPKLLIYAADNLQDAVPSRFSGSGSGTDFTLTITGLHPDDLATYYCQQSYTIPPTFGHGTKVEIK
Consider B4, for which the binding result in assay [2] is “no binding”.

B5: mAb 5J8 (antibody, V domains shown)
VH: EVQLVESGPGLVKPSDILSLTCAVSGYSISSNYYWGWIRQPPGKGLEWIGSIYHSGSTYYKPSLESRLGISVDTSKNQFSLKLSFVSAADTAVYYCARHVRSGYPDTAYYFDKWGQGTLVTVSS
VL: SYVLTQPPSVSVAPGETARISCGGNNIGTKVLHWYQQTPGQAPVLVVYDDSDRPSGIPERFSGSNSGNTATLTISRVEVGDEADYYCQVWDISTDQAVFGGGTKLTVL
Take B5: the binding result in assay [3] and in assay [4] was “binds” in each case.

B6: FluA-20 (antibody, V domains shown)
VH: QVQLEESGPGLVKPSETLSLTCSVSGVSVTSDIYYWTWIRQPPGKGLEWIGYIFYNGDTNYNPSLKSRVTMSIDTSKNEFSLRLTSVTAADTAVYFCARGTEDLGYCSSGSCPNHWGQGTLVTVSS
VL: DIVMTQSPSSLSASIGDRVTITCRPSQNIRSFLNWFQHKPGKAPKLLIYAASNLQSGVPSRFSGSGSGTEFTLTIRSLQPEDFATYYCQQSYNTPPTFGQGTKVEIK
As to B6, in assay [2], the binding result was “no binding”.
